The supplement of paper PMC9170038

Columns and labels:
MS2 coat protein [1] = assay: apparent KD of MS2 coat protein, switch ON state; designed switch direction (-1 OFF switch, 1 ON switch): -1; higher = weaker reporter binding; conditions: FMN input: 0 or 200 uM; Eterna round: R93 (includes R88 designs)
Procedure, shortened: (§1)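 Designed RNA switches were transcribed on-chip from Illumina sequencing clusters and titrated with SNAP-549-labelled MS2 coat protein in twofold steps from 0.7 or 1.5 nM up to 3 µM. Each step lasted 0.8–1.5 h at first and 10–20 min by the end, in 100 mM Tris-HCl pH 7.5, 80 mM KCl and 4 mM MgCl2, without or with constant ligand. Apparent KD is the median, for each design, of fits to normalised cluster binding curves.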

MS2 coat protein [2] = assay: apparent KD of MS2 coat protein, switch OFF state (with FMN for OFF switches, without FMN for ON switches); designed switch direction (-1 OFF switch, 1 ON switch): -1; higher = weaker reporter binding; conditions: FMN input: 0 or 200 uM; Eterna round: R93 (includes R88 designs)
Procedure, shortened: as §1

Sequence | apparent KD of MS2 coat protein (MS2 coat protein [1]) [nM] | apparent KD of MS2 coat protein (MS2 coat protein [2]) [nM]
AAAAAGUGAGGAUAUGGUAAAAAAAAAAAAAAAAAAAACCUCCAGAAGGCACAUGAGGAUCACCCAUGUCAAAA [Jolly's Folly 3 - Jieux - Exclusion 4] | 44.7 | 19
AGGAAACAUGAGGAUCACCCAUGUAAGGAUAUGAACGAAAUAAAAUAAAAAUAAAAGUUCAGAAGGUACAAAAA [Mat - Exclusion 1 - Eli mod - D8] | 31.8 | 39.3
AAAUAGCAAGGAUAUACAUGAGGAUCACCCAUGUGACCCAGGUAUGGCAUAGACUAGAGUAGAAGGUGCAAAUA [Mod 5 of Ex 3 Tesla 8 - Jieux - Exclusion 3] | 88.1 | 114
AGUACUACAGGAUAUACGAGGGAGGUCCACGUGAACCUUAUACAUGAGGAUCACCCAUGUAGAAGGGUAGUACA [Ex2 Design 108: Super Stable 8] | 50.9 | 18.4
UAAAGACAUGAGGAUCACCCAUGUGAGGAUAUCGGAGAUAACAGAACAUCAAGUUCAGCGAGAAGGCACAGGAA [JR_Exc001_Sub403] | 47 | 65.5
AAAAAGCGAGGAUAUACAUGAGGAUCACCCAUGUAAAAGGUCGCGGGAGGGAGGGAAGGUAGAAGGCGCAAAAA [Excls3-VI] | 15.4 | 14.1
AAGAAUGGAGGAUAUACAAGAAAGAAAGAAAAGAAAAGAAAACAUGAGGAUCACCCAUGUAGAAGGCCAUAGAA [EteRNA is fun!] | 24.9 | 13.8
AAGAAUGCAGGAUAUACAUGAGGAUCACCCAUGUAAAAGAAAGAAAGGGAAAAGAAAAGUAGAAGGGCAAAGAA [Usermaatre-setepenamun Osorkon II] | 35.8 | 36.5
AACAGGUUAGGAUAUAUGUAACAAAUAAAAAAAAUAUAAACAUAGAAGGAACAUGAGGAUCACCCAUGUUAACA [May 29] | 29.7 | 19.4
AAAAGGUGAGGAUAUAUGAAAAAAAAAAAAAAAAAAAAAAAAUAGAAGGCACAUGAGGAUCACCCAUGUAAAAA [LROPPY Exclusion 4 - v04_ on a whim] | 36.9 | 27.2
AGCUAGUCAGGAUAUACGAACAUGUCAGAAGACGUAAGGGAACAUGAGGAUCACCCAUGUAGAAGGGACUAGCA [Diamond 48] | 33.1 | 75
AAAAAACAUGAGGAUCACCCAUGUGAGGAUAUCGAGAAGAAGAAGAAGAAGAAGAGAACGAGAAGGCACAAAAA [Exclusion 1 - G's] | 25.8 | 29.9
CAACAGUCAGGAUAUGCAAAAAAAACGCAACGCAAAAAAAAGCAGAAGGGACAUGAGGAUCACCCAUGUUGUCG [Exclusion4-03] | 29.5 | 22.9
AAAACUGGAGGAUAUACAUGAGGAUCACCCAUGUGUGGAUGAGCUGUGUCGGCGUCAGGUAGAAGGCCACAAAA [Gilly Gone Silly 35 - Jieux - Exclusion 3] | 36.3 | 43.1
AAAUUAGGAGGAUAUACAUGAGGAUCACCCAUGUGACGAUGUUACUGCAUGAAGCCAAGUAGAAGGUCUAAGAA [Lacelaatdi] | 24.7 | 49.5
AAGAAGGAAGGAUAUACAUGAGGAUCACCCAUGUAAAAGAAAGAGGGAAAAGAGAAAAGUAGAAGGUCCAAGAA [Ptolemy V Epiphanes] | 26.5 | 30.3
AGUCAGAGAGGAUAUACAUAGGAAAAAAAAGUAAGAUCCCUACAUGAGGAUCACCCAUGUAGAAGGCUCUGACA [Ex2 Design 140: Sub-opt 4] | 141 | 87.5
AACUGACAUGAGGAUCACCCAUGUCAGGAUAUGAUAUGUAAAAAAAUAAAAAUACUUAUCAGAAGGGACAUGGG [Design 39: Sub-opt A] | 18.2 | 20
AAGAACCAAGGAUAUACAUGAGGAUCACCCAUGUAAAAGAAAGAAGGGAAAGAGAAAAGUAGAAGGUGGAAGAA [Djedkaure Shebitku] | 28.3 | 22.7
AGUCGGCGAGGAUAUACAUGAGGAUCACCCAUGUGAGAGAAAAAAGUGAGCAAGAAAUGUAGAAGGCGCUGACA [JL Lego Mod 3] | 156 | 61.9
AAAUGCUGAGGAUAUACAUGAGGAUCACCCAUGUAAAAUAAAUAAUGGAUGUAAACGUGUAGAAGGCAGCAUAA [Exclusion 3.14b (FMN+ favored )] | 79.6 | 23
AGCUAGUGAGGAUAUGCGAACAUGUCAAAAGACGUGAAGGGACAUGAGGAUCACCCAUGUAGAAGGCACUAGCA [JL 74% mod 3] | 26.4 | 36.3
